Data taken from paper PMC12416549 (2024).
Where a chain is given by its changes, count along the chain named. Names may count otherwise.

T1: TNFR1 (Homo sapiens, UniProt P19438)
T1 chain: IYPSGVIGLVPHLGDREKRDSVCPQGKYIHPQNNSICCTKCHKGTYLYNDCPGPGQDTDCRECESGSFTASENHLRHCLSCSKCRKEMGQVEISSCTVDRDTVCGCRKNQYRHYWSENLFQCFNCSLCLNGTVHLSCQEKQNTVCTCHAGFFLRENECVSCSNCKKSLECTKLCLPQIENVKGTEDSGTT

B1: R8F (designed binder)
chain: MTLQELLFEEALRRAEAEAFRYALELLAEKFPEQKEYLLDLAEEIESQIRSLSGVDVEDVRKFLDKEWAWVKELLAEHPAELAEVEAARAARLAELRAEVEAKVAA
B2: S47G (designed binder)
chain: B1 chain with F8R, S47G
B3: R89A (designed binder)
chain: B1 chain with F8R, R89A
B4: L96P (designed binder)
chain: B1 chain with F8R, L96P
B5: A15Y (designed binder)
chain: B1 chain with F8R, A15Y
B6: E86Q (designed binder)
chain: B1 chain with F8R, E86Q
B7: A80Q (designed binder)
chain: B1 chain with F8R, A80Q
B8: D59M (designed binder)
chain: B1 chain with F8R, D59M
B9: R50M (designed binder)
chain: B1 chain with F8R, R50M
B10: R97N (designed binder)
chain: B1 chain with F8R, R97N
B11: R13L (designed binder)
chain: B1 chain with F8R, R13L
B12: D56H (designed binder)
chain: B1 chain with F8R, D56H
B13: L38Y (designed binder)
chain: B1 chain with F8R, L38Y
B14: V85A (designed binder)
chain: B1 chain with F8R, V85A
B15: R89G (designed binder)
chain: B1 chain with F8R, R89G
B16: E67G (designed binder)
chain: B1 chain with F8R, E67G
B17: K35S (designed binder)
chain: B1 chain with F8R, K35S
B18: E36K (designed binder)
chain: B1 chain with F8R, E36K
B19: T2A (designed binder)
chain: B1 chain with T2A, F8R
B20: R50E (designed binder)
chain: B1 chain with F8R, R50E
B21: L7G (designed binder)
chain: B1 chain with L7G, F8R
B22: L75Y (designed binder)
chain: B1 chain with F8R, L75Y
B23: A11Q (designed binder)
chain: B1 chain with F8R, A11Q
B24: E44H (designed binder)
chain: B1 chain with F8R, E44H
B25: E46F (designed binder)
chain: B1 chain with F8R, E46F
B26: E46C (designed binder)
chain: B1 chain with F8R, E46C
B27: L39A (designed binder)
chain: B1 chain with F8R, L39A
B28: R50Y (designed binder)
chain: B1 chain with F8R, R50Y
B29: A88E (designed binder)
chain: B1 chain with F8R, A88E
B30: E43T (designed binder)
chain: B1 chain with F8R, E43T
B31: V60H (designed binder)
chain: B1 chain with F8R, V60H
B32: L96R (designed binder)
chain: B1 chain with F8R, L96R
B33: I49R (designed binder)
chain: B1 chain with F8R, I49R
B34: E33L (designed binder)
chain: B1 chain with F8R, E33L
B35: A87T (designed binder)
chain: B1 chain with F8R, A87T
B36: R8K (designed binder)
chain: B1 chain with F8K
B37: A23T (designed binder)
chain: B1 chain with F8R, A23T
B38: P32Q (designed binder)
chain: B1 chain with F8R, P32Q
B39: V57L (designed binder)
chain: B1 chain with F8R, V57L
B40: K62F (designed binder)
chain: B1 chain with F8R, K62F
B41: K30Y (designed binder)
chain: B1 chain with F8R, K30Y
B42: Q4N (designed binder)
chain: B1 chain with Q4N, F8R
B43: K72S (designed binder)
chain: B1 chain with F8R, K72S
B44: E46Y (designed binder)
chain: B1 chain with F8R, E46Y
B45: E95L (designed binder)
chain: B1 chain with F8R, E95L
B46: W68A (designed binder)
chain: B1 chain with F8R, W68A
B47: E25I (designed binder)
chain: B1 chain with F8R, E25I
B48: D59L (designed binder)
chain: B1 chain with F8R, D59L
B49: F63T (designed binder)
chain: B1 chain with F8R, F63T
B50: A90R (designed binder)
chain: B1 chain with F8R, A90R
B51: K30I (designed binder)
chain: B1 chain with F8R, K30I
B52: A42C (designed binder)
chain: B1 chain with F8R, A42C
B53: S47E (designed binder)
chain: B1 chain with F8R, S47E
B54: R21I (designed binder)
chain: B1 chain with F8R, R21I
B55: K35W (designed binder)
chain: B1 chain with F8R, K35W

Target: T1, TNFR1
Experiment: yeast display SC50

First: B1
Second: B2
The “apparent Kd (screen)” value of the first is 2.6-fold lower: 0.49 nM for the first, 1.27 nM for the second.

Going from B3 to B4, the “apparent Kd (screen)” value falls from 0.79 nM to 0.49 nM (1.6-fold).

Going from B5 to B6, the “apparent Kd (screen)” value rises from 0.539 nM to 0.869 nM (1.6-fold).

B7 and B8 are within 1.5-fold of each other in “apparent Kd (screen)” value: 0.49 nM for the first, 0.539 nM for the second.

B9 and B10 are within 1.5-fold of each other in “apparent Kd (screen)” value: 0.593 nM for the first, 0.539 nM for the second.

Compared with B11, B12 is 3.8-fold higher in “apparent Kd (screen)” value: 0.49 nM for the first, 1.86 nM for the second.

B13 and B14 are the same in “apparent Kd (screen)” value: 0.79 nM for the first, 0.79 nM for the second.

Compared with B15, B16 is 13-fold higher in “apparent Kd (screen)” value: 1.05 nM for the first, 13.8 nM for the second.

First: B17
Second: B18
The “apparent Kd (screen)” value of the first is 6.1-fold lower: 0.653 nM for the first, 3.99 nM for the second.

Going from B19 to B20, the “apparent Kd (screen)” value falls from 0.79 nM to 0.446 nM (1.8-fold).

Going from B21 to B22, the “apparent Kd (screen)” value falls from 16.7 nM to 0.718 nM (23-fold).

First: B23
Second: B24
The “apparent Kd (screen)” value of the first is 2.6-fold lower: 0.79 nM for the first, 2.05 nM for the second.

First: B25
Second: B26
The “apparent Kd (screen)” value of the first is 1.6-fold higher: 0.49 nM for the first, 0.304 nM for the second.

Compared with B27, B28 is 3.8-fold lower in “apparent Kd (screen)” value: 2.05 nM for the first, 0.539 nM for the second.

Compared with B29, B30 is 1.6-fold higher in “apparent Kd (screen)” value: 0.49 nM for the first, 0.79 nM for the second.

B31 and B32 are within 1.5-fold of each other in “apparent Kd (screen)” value: 1.27 nM for the first, 0.956 nM for the second.

B33 and B34 are within 1.5-fold of each other in “apparent Kd (screen)” value: 0.593 nM for the first, 0.653 nM for the second.

First: B35
Second: B36
The “apparent Kd (screen)” value of the first is 1.8-fold higher: 0.956 nM for the first, 0.539 nM for the second.

B37 and B38 are within 1.5-fold of each other in “apparent Kd (screen)” value: 0.539 nM for the first, 0.593 nM for the second.

B39 and B40 are within 1.5-fold of each other in “apparent Kd (screen)” value: 0.539 nM for the first, 0.593 nM for the second.

B41 and B42 are within 1.5-fold of each other in “apparent Kd (screen)” value: 0.539 nM for the first, 0.405 nM for the second.

B43 and B44 are within 1.5-fold of each other in “apparent Kd (screen)” value: 0.49 nM for the first, 0.539 nM for the second.

Going from B45 to B46, the “apparent Kd (screen)” value rises from 0.446 nM to 1.4 nM (3.1-fold).

B47 and B48 are within 1.5-fold of each other in “apparent Kd (screen)” value: 0.869 nM for the first, 0.718 nM for the second.

B49 and B50 are within 1.5-fold of each other in “apparent Kd (screen)” value: 0.869 nM for the first, 0.718 nM for the second.

Compared with B51, B52 is 2.1-fold higher in “apparent Kd (screen)” value: 0.49 nM for the first, 1.05 nM for the second.

B53 and B54 are the same in “apparent Kd (screen)” value: 0.49 nM for the first, 0.49 nM for the second.

In the case of B55, the “apparent Kd (screen)” value is reported as 0.593 nM.
